Data on 5 substances can be found in publication PMC3725505.

Experiment [1] deals with Kelch domain of human Keap1 (residues 321-609) (human) (UniProt Q14145). The experiment in a line: ITC.
In experiment [2] the target is Keap1 (Kelch domain) Kelch domain, 321-609 (UniProt Q14145). The experiment in a line: isothermal titration calorimetry. The settings on record: reference: unphosphorylated WTX 20-mer peptide; sites S286.

Kelch domain of human Keap1 (residues 321-609) (human), sequence (Q14145 321-609): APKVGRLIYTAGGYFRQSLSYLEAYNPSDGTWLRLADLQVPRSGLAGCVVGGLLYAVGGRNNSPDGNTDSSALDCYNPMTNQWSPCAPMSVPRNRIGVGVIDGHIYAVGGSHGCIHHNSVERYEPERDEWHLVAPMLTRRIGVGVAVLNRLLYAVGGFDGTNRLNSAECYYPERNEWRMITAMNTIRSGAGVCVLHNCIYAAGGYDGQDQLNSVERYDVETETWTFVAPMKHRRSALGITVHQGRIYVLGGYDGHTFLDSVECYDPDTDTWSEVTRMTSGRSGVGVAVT

For FAC1 peptide (20-mer), in experiment [1], the Kd amounted to 1100 nM and the dH was -15.1 kcal/mol.
As for PALB2 peptide (20-mer), in experiment [1], the dH is -19.3 kcal/mol and the stoichiometry N worked out at 1.01.
PGAM5 peptide (20-mer): in experiment [1], the Kd stood at 230 nM, the dH was -19.1 kcal/mol and the stoichiometry N came to 1.07.
Take “WTX Kelch-binding region (from UniProt Q5JTC6) WTX pS286 20-mer peptide”: the KD result in experiment [2] is recorded as “weaker; reference 0.25 ± 0.02”.
WTX peptide (20-mer, unphosphorylated): in experiment [1], the Kd amounted to 250 nM, the dH was -18 kcal/mol and the stoichiometry N is 1.04.
